Data as given in patent US20210325403.

Target: T1, caspase-3 substrate CGKRKGDEVDSG
T1 chain: CGKRKGDEVDSG

B1: caspase-3 (protein)
chain: SGISLDNSYKMDYPEMGLCIIINNKNFHKSTGMTSRSGTDVDAANLRETFRNLKYEVRNKNDLTREEIVELMRDVSKEDHSKRSSFVCVLLSHGEEGIIFGTNGPVDLKKITNFFRGDRCRSLTGKPKLFIIQACRGTELDCGIETDSGVDDDMACHKIPVEADFLYAYSTAPGYYSWRNSKDGSWFIQSLCAMLKQYADKLEFMHILTRVNRKVATEFESFSFDATFHAKKQIPCIVSMLTKELYFYH
cleavage of the immobilised substrate, read by SAMDI mass spectrometry: we also observed a peak corresponding to the caspase-3 product at 144 Da lower than the initial substrate mass
